The results in this text go back to patent US12570957B2, “Isolated naive pluripotent stem cells and methods of generating same” (Yeda Research and Development Co. Ltd., priority 2013, dated 2026).

Common to all, as to format: cell-based
In one experiment the test system is WIS1 naive human ESCs. Nature of the experiment: PGCLC induction from naive ESCs, NANOS3-mCherry FACS. To be noted: 2 days N2-KSR medium then 4 days PGC medium. An excerpt:
FIGS. 96A-96I depict the process of differentiating human ESCs into primordial germ cell like cells. FIG. 96A—schematic illustration of the differentiation process. FIGS. 96B-96I—FACS analyses for detecting PGCLC marker expression NANOS3-Cherry. […] Shown are FACS results after 2 (FIGS. 96D and 96G), 4 (FIGS. 96E and 96H), and 6 (FIGS. 96F and 961) days in the PGC medium. The Figures show specific induction of mCherry reporter at Day 2+4 and only when BMP4 is included in the differentiation medium (FIG. 96E). […] One representative experiment is shown out of five performed. +/− indicates s.d. (n=5).
N2-KSR medium—250 ml Neurobasal medium (Invitrogen—#21103-049), 250 ml DMEM-F12, N2 supplement (Invitrogen, #17502-048), 1% KSR (knockout serum replacement, Invitrogen, #10828028) medium] with 8 ng/ml bFGF (Peprotech), 1 ng/ml TGF-β1 (Peprotech) and ROCKi (10 μM).
PGC medium is comprised of GMEM (Invitrogen, #21710082), 15% KSR, 1% NNEA (Biological industries, 01-340-1B), Penicillin-Streptomycin, 1 mM L-Glutamine, […] (Y-27632, Axon Medchem) and the following cytokines: 500 ng/ml BMP4 (bone morphogenetic protein 4; R&D Systems Inc.), 20 ng/ml LIF (leukemia inhibitory factor; PeproTech), 100 ng/ml SCF (Stem Cell Factor; PeproTech), 50 ng/ml EGF (Epidermal Growth Factor; Peprotech). […]

Another experiment relates to naive hESCs/hiPSCs. Nature of the experiment: Pluripotency maintenance after supplementation of inhibitors or growth factors. To be noted: naive human cells in WIS-NHSM. The method, then: (§1) Shown are histograms depicting colony formation of pluripotent cell lines in various media. Cell populations were equally divided and plated on gelatin/vitronectin coated plates in the indicated growth medium in which these cell lines are normally maintained (mouse naive cells in a medium containing 2i/LIF, naive hESCs/iPSCs in a WIS-NHSM medium, mouse EpiSCs and human primed ESCS/iPSCs in a KSR/bFGF/TGFβmedium). 36 hours later the wells were supplemented with the indicated inhibitors or growth factors. After 14 days (2 passages), wells were analyzed for Oct4-GFP pluripotency marker expression by FACS, to determine the relative percentage of pluripotent colonies. Pluripotent cell frequency was normalized to an internal control, as indicated by “Growth medium” only on the far left column (For naive cells growth medium was WIS-NHSM, and for primed cells was conventional KSR/bFGF/TGFβcontaining medium as specified in methods). […]
(§2) FIGS. 108A-108C—Signaling and functional characteristics of human naive pluripotency. […] After 14 days (2 passages), wells were analyzed by OCT4 immunostaining of direct detection of OCT4-GFP pluripotency reporter expression, to determine the relative percentage of undifferentiated pluripotent cells. […] After 20 days, colonies positive for OCT4 pluripotency markers were counted and normalized to colonies from cells electroporated with empty vector. […]

The subject of a further experiment is primed hESCs/hiPSCs. Described as above. To be noted: primed human cells. The method, then:
as §1, §2

B1: BMP4: bone morphogenetic protein 4, recombinant human (protein, UniProt P12644 293-408, looked up)
Bone morphogenetic protein 4: SPKHHSQRARKKNKNCRRHSLYVDFSDVGWNDWIVAPPGYQAFYCHGDCPFPLADHLNSTNHAIVQTLVNSVNSSIPKACCVPTELSAISMLYLDEYDKVVLKNYQEMVVEGCGCR
With B1, the “cells expressing NANOS3-mCherry reporter” value in the experiment on WIS1 naive human ESCs amounted to 17.7%. The “response of pluripotent state” value is on record as “do not differentiate” with naive hESCs/hiPSCs and “differentiated” in the experiment on primed hESCs/hiPSCs.
